# In patent US11905525B2, “Reduction of elimination of immune responses to non-intravenous, e.g., subcutaneously administered therapeutic proteins” (ModernaTX, Inc., priority 2017, dated 2024):
# System: accelerated blood clearance (ABC)
# Assay: Accelerated blood clearance (ABC) upon subsequent administration of LNP with a B cell targeting agent
# Assay type: in vivo
# Conditions: combination with the LNP
substance,measurement,value
Rituximab: monoclonal antibody against the protein CD20,ABC upon subsequent administration of LNP,significantly reduced ABC
